Assay [1] concerns the target T1, CD47 on breast cancer cell line MCF-7 (UniProt Q08722 19-323, limits assumed).
T1 construct: whole, on cells; Endogenous CD47 of MCF-7 cells; also called CD47-expressing tumor cells (MCF-7); CD47-expressing cells
In words: flow cytometry on MCF-7 cells, secondary antibody alone (background control).

In assay [2] the target is T1, CD47 on breast cancer cell line MCF-7. Kind of assay: flow cytometry on MCF-7 cells, 1 ug antibody, PE anti-mouse IgG. As for the experimental part:
First, 1×10⁷ of breast cancer cell line MCF-7 expressing CD47 and 1 μg of 7C7, 5H4, […], 3H3, 3A5, and 1E7 antibody were reacted for 30 minutes, respectively, and then stained on surface with a secondary antibody. After staining, it was measured by flow cytometry.
As a positive control, CD47 antibody (Biolegend PE anti-human CD47, cat# 323108, 5 μl) was used, and as a secondary antibody, PE-conjugated anti-mouse IgG antibody (PE-conjugated goat anti-mouse IgG; Biolegend Inc., cat# 405307, USA, 5 μl) was used.

In assay [3] the target is T2, CD47 protein (Acrobiosystems, cat#CD7-HA2E9) (UniProt Q08722 19-139).
T2 construct: Bought recombinant protein, used as immunogen and as ELISA coating (100 ng/well); also called CD47 peptide; CD47 antigen
T2 sequence (Q08722 19-139 limits assumed): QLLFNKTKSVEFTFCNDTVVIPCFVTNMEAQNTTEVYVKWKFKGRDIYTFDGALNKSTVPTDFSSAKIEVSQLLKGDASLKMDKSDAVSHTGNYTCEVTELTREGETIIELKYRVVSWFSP
Kind of assay: ELISA, CD47 protein coated 100 ng/well, 3 ul hybridoma culture solution, anti-mIgG-HRP. As for the experimental part: 3 μl of hybridoma cell culture solution of each clone for producing 7C7, 5H4, 5A4, 4E12, 3H3, 3A5, or 1E7 antibody was treated in each well, and then reacted at room temperature for 2 hours, and then washed 3 times with 1× PBST. Secondary antibody ([…], 1:10,000) was treated and reacted at room temperature for 30 minutes, washed 3 times with 1× PBST, and then treated with TMB for color development and reacted at room temperature for 5 minutes. Finally, the reaction was terminated by treatment with a stop solution of 1N H₂SO₄, and then the absorbance was measured at 450 nm.

T1 sequence (Q08722 19-323 limits assumed): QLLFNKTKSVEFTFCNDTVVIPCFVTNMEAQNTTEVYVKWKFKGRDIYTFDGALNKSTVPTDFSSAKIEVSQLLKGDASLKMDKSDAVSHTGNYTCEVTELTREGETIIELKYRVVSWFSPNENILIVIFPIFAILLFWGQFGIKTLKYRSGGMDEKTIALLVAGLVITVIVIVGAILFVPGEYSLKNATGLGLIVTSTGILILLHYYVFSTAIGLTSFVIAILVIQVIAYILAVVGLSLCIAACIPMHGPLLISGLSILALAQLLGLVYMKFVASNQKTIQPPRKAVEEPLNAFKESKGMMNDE

“PE-conjugated goat anti-mouse IgG (Biolegend Inc., cat# 405307) (antibody)”: in assay [1], the Mean came to 80 and the Median amounted to 73.9.

B1: 5A4 antibody (antibody, V domains shown)
VH: QVQLQQPGPELVRPGASVKMSCKASGYTFTNYWIHWVKQRPGQGLEWIGMIDPSNSATRLNQKFKDKATLNVDKSSNTAYMQLSSLTSEDSAVYYCARGGFAFDSWGQGTTLTVSS
VL: DVLMTQTPLSLPVSLGDQASISCRSSQSLVHSNGNTYLHWYLQKPGQSPKLLIYKVSNRFSGVPDRFSGSGSGTDFTLKISRVEAEDLGVYFCSQSTHVPWTFGGGTKLEIK
notes: Hybridoma monoclonal antibody detected with anti-mouse IgG
In assay [2], B1 displayed a Mean of 16000 and a Median of 14700. The OD450 measurements in assay [3] was determined as 1.93 OD450.

B2: 5H4 antibody (antibody, V domains shown)
VH: QVQLQQPGAELVKPGTSVKMSCKASGYTFTNYWMHWVKQRPGQVLEWIGVIDPSDSYTSYNQKFKGKATLTVDTSSTTAYMQLSSLTSEDSAVYYCTRGGKRAMDYWGQGTSVTVSS
VL: DVLMTQTPLSLPVSLGDQASISCRSSQSLVHSNGNTYLHWYLQKPGQSPKLLIYKVSNRFSGVPDRFSGSGSGTDFTLKISRVEAEDLGVYFCSQSTHVPFTFGSGTKLEIK
notes: as for B1
As to B2, in assay [2], the Mean was 15500 and the Median was determined as 14300. The OD450 measurements in assay [3] amounted to 1.91 OD450.

B3: 4E12 antibody (antibody, V domains shown)
VH: QIQFAQSGPELKKSGETVKISCRASGYTFTNYGMNWVKQAPGKGLKWMGWINTYTGEPTYADDFKGRFAFSLETSASTAYLQINNLKNEDMATYFCARGGGRGAMDYWGQGTTLTVSS
VL: DVLMTQTPLSLPVSLGDQASISCRSSQSIVHSNGNTYLDWYLQKPGQSPKLLIYKVSKRFSGVPDRFSGSGSGTDFTLKISRVEAEDLGVYYCFQGSHVPFTFGSGTKLEIK
notes: as for B1
In assay [2], B3 came in with a Mean of 6030 and a Median of 5380. Also, the OD450 measurements in assay [3] was 2.15 OD450.

B4: 1E7 antibody (antibody, V domains shown)
VH: EVQLQQSGPELIKPGASVKMSCKASGYIFTSYVVYWVKQKPGQGLEWIGYINPYNDGTKYNEKFKGKATLTSYKSSSTAYMELSSLTSADSAVYYCARGGFTTDYWGQGTTLTVSS
VL: DVLMTQTPLSLPVSLGDQASISCRSSQSLVHSNGNTYLHWYLQKPGQSPKLLIYKVSNRFSGVPDRFSGSGSGTDFTLKISRVEAEDLGVYFCSQSTHVPYTFGGGTKLEIK
notes: as for B1
In assay [2], B4 had a Mean of 16100 and a Median of 14900. Besides, the OD450 measurements in assay [3] is 2.14 OD450.

B5: 3H3 antibody (antibody, V domains shown)
VH: EVQLQQPGPELVRPGASVKMSCKASGYTFTNYWMHWVKQRPGQGLEWIGMIDPSNSETRLNQKFKDKATLNVDKSSNTAYMQLSSLTSEDSAVYSCARGGFAFDSWGQGTTLTVSS
VL: DVLMTQTPLSLPVSLGDQASISCRSSQSLVHNNGNTYLHWYLQKPGQSPKLLIYKVSNRFSGVPDRFRGSGSGTDFTLKISRVEAEDLGVYFCSQSTHVPWTFGGGTKLEIK
notes: as for B1
In assay [2], B5 registered a Mean of 18000 and a Median of 16500. For the same molecule, the OD450 measurements in assay [3] turned out to be 1.97 OD450.

B6: 3A5 antibody (antibody, V domains shown)
VH: EVQLQQPGAELVKPGASVKMSCKASGYTFTSYWMHWMNQRPGQGLEWIGVIDPSDSYTSYNQKFKGKATLTVDTSSSTAYMQLSSLTSEDSAVYYCARGGKRAMDYWGQGTSVTVSS
VL: DVLMTQTPLSLPVSLGDQASISCRSSQSLVHSNGNTYLHWYLQKPGQSPKLLIYKVSNRFSGVPDRFSGSGSGTDFTLKISRVEAEDLGVYFCSQSTHVPFTFGSGTKLEIK
notes: as for B1
In assay [2], B6 yielded a Mean of 15000 and a Median of 13900. For the same molecule, the OD450 measurements in assay [3] stood at 2.01 OD450.

B7: 7C7 antibody (antibody, V domains shown)
VH: EVQLQQSGPELVKPGASVRMSCKASGYTFTSYVMHWVKQKPGQGLEWIGYINPYNDGTKYNEKFKGKSTLTSDKSSSTAYMELSSLTSEDSAVYCCARGRNRYDSWFAYWGQGTLVTVSA
VL: DIQMTQTTSSLSASLGDRVTISCRASQDISNYLNWYQQKPDGTVKLLIYYTSRLHSGVPSRFSGSGSGTDYSLTISNLEQEDIATYFCQQGNTLPWTFGGGTKLEIK
notes: Monoclonal antibody from a hybridoma (mouse myeloma fusion), detected with anti-mouse IgG; In the ELISA hybridoma culture solution was used
In assay [2], B7 returned a Mean of 6820 and a Median of 6110. In assay [3], this molecule yielded an OD450 measurements of 1.98 OD450.

The values are drawn from US20240034790A1 (INNOBATION BIO, published 2024).
